Experimental data from patent US9969998B2, “Compositions of adenosine deaminase-2 (ADA2), variants thereof and methods of using same” (Halozyme, Inc., priority 2014, dated 2018).
“And” between values parts separate entries of the source, which are not always exact repeats. Equal entries are not always repeated.

Legend:
[1] = Thermal stability, melting temperature (Tm) by differential scanning fluorimetry; assay type: physicochemical; settings: compared to ADA1
Text: Proteins differ in their degrees of thermal stability (or thermostability). In particular, proteins with biological activities, such as enzymes, can have different optimal temperatures. Thermostability, the quality of a protein to resist irreversible change in its chemical or physical structure at a relatively high temperature, can be indicative of overall stability of a protein. Increased temperature usually induces protein unfolding, and disruption of secondary, tertiary and quaternary structure of proteins, leading to destabilization of protein. Thermostability of a protein, such as any ADA2 polypeptide provided herein, can be determined by measuring the changes in enzymatic activity and/or other physical properties, before and after incubation in relatively high or low temperatures.
The stability of a protein can be determined by measuring the activity of the protein as a function of time. The melting temperature (Tm) of the protein can be used as a marker of solution stability and in vivo stability for proteins. The unfolding temperature of a particular protein refers to that temperature at which the protein loses its secondary structure and typically, its activity and can be determined using methods known to those of skill in the art and described herein, such as differential scanning calorimetry […]. […] In other examples, the thermal stability can be measured biochemically. […]

[2] = tested on: adenosine in tumor extracellular matrix; test: Adenosine in MH194+PSC4 tumor extracellular matrix (microdialysis, LC/MS); assay type: in vivo, mice; settings: for Adenosine concentration in ECM, Mean: n = 8; for Adenosine concentration in ECM, individual tumors: single animal values; for adenosine concentration in tumor ECM: 0.03 mg/kg
Method: To assess the effects of PEGADA2 on adenosine in tumor extracellular matrix, mice bearing peritibial MH194+PSC4 tumors received vehicle, the polypeptide whose sequence is set forth in SEQ ID NO:20, which contains the amino acid replacement K374D (Zavialov numbering; K371D mature numbering), at 0.03 mg/kg, or the polypeptide whose sequence is set forth in SEQ ID NO: 273, which contains the amino acid replacements R222Q/S265N (Zavialov numbering; R219Q/S262 mature numbering), at 0.03 mg/kg, 24 or 48 hours prior to microdialysis. Each of the polypeptides were PEGylated as described above in Examples 8 and 22). The mice were anesthetized using isofluorane, and a heating pad was used to maintain body temperature. A small incision was made on the tumor. A microdialysis probe with 55,000 Da molecular weight cut-off (CMA, Stockholm, Sweden) was inserted into the tumor, via a guided cannula. The length of the microdialysis probe used in this study was 10 mm. Once the probe was in position, the cannula was withdrawn leaving the probe completely embedded in the tumor tissue. Dulbecco's phosphate buffered saline (DPBS; Thermo Fisher Scientific) with ADA inhibitors (Pentostatin and 5-iodotubercindin) was perfused through the probe at a flow rate of 1 μl/min for 30 minutes. Then the samples were collected at a flow rate of 0.5 μl/min for 60 minutes. Microdialysis perfusates were analyzed by Liquid chromatography-mass spectrometry (LC/MS) at MicroConstants (9050 Camino Santa Fe, San Diego, Calif. 92121).

[3] = tested on: CT26 murine colon cancer tumor; test: Tumor growth inhibition, CT26 syngeneic tumor model; assay type: in vivo, BALB/c mice
Method: Forty-four (44) male BALB/c mice were inoculated subcutaneously with 5×10^6 murine colon cancer tumor cells (CT26, ATCC CRL-2638) in 0.1 mL injection volume per animal. Tumor volume was determined using digital calipers by caliper measurement of the length (L) and width (W) of the solid tumor masses. Tumor volume (TV) was calculated as: (L×W^2)/2. Tumors were allowed to grow and tumor bearing mice were staged until when the tumors were palpable and measured to be about 50-100 mm^3.
PEGylated rHuADA2-K374D (K371D by mature numbering) was prepared as described in Example 8.A, with minor modifications to generate a preparation in which approximately 100% of the molecules were PEGylated as assessed by SDS-PAGE.
For treatment, animals were randomized into four groups (n=8/group). CT26 tumor bearing mice were then injected intravenously (IV) every other day, at 3 mg/kg body weight, 10 mg/kg body weight or 30 mg/kg body weight doses of PEG-K374D (PEG-K371D by mature numbering) or vehicle control (buffer only) every other day. Tumor volume was measured at day 0 and 8 using caliper measurement as described above. […] One mouse from the vehicle group was excluded due to significant tumor growth inhibition.

[4] = day 8; 3 mg/kg IV every other day
[5] = day 8; 10 mg/kg IV every other day
[6] = day 8; 30 mg/kg IV every other day

B1: ADA2: wild-type human adenosine deaminase 2, mature form SEQ ID NO:5, homodimer (protein, listed as Homo sapiens)
chain: IDETRAHLLLKEKMMRLGGRLVLNTKEELANERLMTLKIAEMKEAMRTLIFPPSMHFFQAKHLIERSQVFNILRMMPKGAALHLHDIGIVTMDWLVRNVTYRPHCHICFTPRGIMQFRFAHPTPRPSEKCSKWILLEDYRKRVQNVTEFDDSLLRNFTLVTQHPEVIYTNQNVVWSKFETIFFTISGLIHYAPVFRDYVFRSMQEFYEDNVLYMEIRARLLPVYELSGEHHDEEWSVKTYQEVAQKFVETHPEFIGIKIIYSDHRSKDVAVIAESIRMAMGLRIKFPTVVAGFDLVGHEDTGHSLHDYKEALMIPAKDGVKLPYFFHAGETDWQGTSIDRNILDALMLNTTRIGHGFALSKHPAVRTYSWKKDIPIEVCPISNQVLKLVSDLRNHPVATLMATGHPMVISSDDPAMFGAKGLSYDFYEVFMGIGGMKADLRTLKQLAMNSIKYSTLLESEKNTFMEIWKKRWDKFIADVATK
modifications: ADA2 mature protein
- thermal stability [1]: higher thermal stability

B2: K374D: ADA2 variant SEQ ID NO:20 (protein)
chain: IDETRAHLLLKEKMMRLGGRLVLNTKEELANERLMTLKIAEMKEAMRTLIFPPSMHFFQAKHLIERSQVFNILRMMPKGAALHLHDIGIVTMDWLVRNVTYRPHCHICFTPRGIMQFRFAHPTPRPSEKCSKWILLEDYRKRVQNVTEFDDSLLRNFTLVTQHPEVIYTNQNVVWSKFETIFFTISGLIHYAPVFRDYVFRSMQEFYEDNVLYMEIRARLLPVYELSGEHHDEEWSVKTYQEVAQKFVETHPEFIGIKIIYSDHRSKDVAVIAESIRMAMGLRIKFPTVVAGFDLVGHEDTGHSLHDYKEALMIPAKDGVKLPYFFHAGETDWQGTSIDRNILDALMLNTTRIGHGFALSKHPAVRTYSWDKDIPIEVCPISNQVLKLVSDLRNHPVATLMATGHPMVISSDDPAMFGAKGLSYDFYEVFMGIGGMKADLRTLKQLAMNSIKYSTLLESEKNTFMEIWKKRWDKFIADVATK
modifications: human ADA2 K371D, mature numbering
- Adenosine concentration in ECM, Mean ([2]; 24 hours after 0.03 mg/kg): 19.54 µM
- Adenosine concentration in ECM, individual tumors ([2]; 24 hours after 0.03 mg/kg): 49.02 µM and 12.72 µM and 29.64 µM and 13.58 µM and 12.54 µM and 7.48 µM and 2.04 µM and 29.30 µM
- adenosine concentration in tumor ECM ([2]; 24 hours post treatment): 19.5 µM
- Adenosine concentration in ECM, Mean ([2]; 48 hours after 0.03 mg/kg): 11.06 µM
- Adenosine concentration in ECM, individual tumors ([2]; 48 hours after 0.03 mg/kg): 23.13 µM and 0.07 µM and 6.47 µM and 2.77 µM and 20.92 µM and 1.64 µM and 27.54 µM and 5.95 µM
- adenosine concentration in tumor ECM ([2]; 48 hours post treatment): 11 µM

B3: PEG-K374D: rHuADA2-K374D (SEQ ID NO:20) PEGylated on surface exposed lysines with linear PEG-20K (conjugate)
chain: IDETRAHLLLKEKMMRLGGRLVLNTKEELANERLMTLKIAEMKEAMRTLIFPPSMHFFQAKHLIERSQVFNILRMMPKGAALHLHDIGIVTMDWLVRNVTYRPHCHICFTPRGIMQFRFAHPTPRPSEKCSKWILLEDYRKRVQNVTEFDDSLLRNFTLVTQHPEVIYTNQNVVWSKFETIFFTISGLIHYAPVFRDYVFRSMQEFYEDNVLYMEIRARLLPVYELSGEHHDEEWSVKTYQEVAQKFVETHPEFIGIKIIYSDHRSKDVAVIAESIRMAMGLRIKFPTVVAGFDLVGHEDTGHSLHDYKEALMIPAKDGVKLPYFFHAGETDWQGTSIDRNILDALMLNTTRIGHGFALSKHPAVRTYSWDKDIPIEVCPISNQVLKLVSDLRNHPVATLMATGHPMVISSDDPAMFGAKGLSYDFYEVFMGIGGMKADLRTLKQLAMNSIKYSTLLESEKNTFMEIWKKRWDKFIADVATK
modifications: linear PEG-20K on surface lysines; human ADA2 K371D, mature numbering
- Average Tumor Volume ([3]; 3 mg/kg IV every other day; day 8): 257.72 mm^3
- Tumor Growth Inhibition ([3]; 3 mg/kg IV every other day; day 8; vs vehicle): 50%
- Average Tumor Volume ([3]; 10 mg/kg IV every other day; day 8): 207.84 mm^3
- Tumor Growth Inhibition ([3]; 10 mg/kg IV every other day; day 8; vs vehicle): 63%
- Average Tumor Volume ([3]; 30 mg/kg IV every other day; day 8): 187.32 mm^3
- Tumor Growth Inhibition ([3]; 30 mg/kg IV every other day; day 8; vs vehicle): 68%
- Average Tumor Volume [3, 4]: 257.72 mm^3
- tumor growth inhibition (TGI) [3, 4]: 50%
- Average Tumor Volume [3, 5]: 207.84 mm^3
- tumor growth inhibition (TGI) [3, 5]: 63%
- Average Tumor Volume [3, 6]: 187.32 mm^3
- tumor growth inhibition (TGI) [3, 6]: 68%
